Values belong to the molecule of their own block, whether it stands above or below them.
Columns and labels:
[1] = molecular target: Rhodobacter sphaeroides dimeric RC–LH1–PufX complex (521 kDa) (Rhodobacter sphaeroides) (UniProt P0C0Y7); assay: negative-stain electron microscopy; SEC peak fractions of purified RC complexes in peptidiscs, 0.7% uranyl formate, 100 class averages by K-means classification
[2] = molecular target: the molecule itself; assay: cryo-EM structure; single-particle cryo-EM of His-tagged membrane protein reconstituted on Ni beads into peptidiscs and purified by SEC; vitrified; Titan Krios 300 kV, K2 Summit; RELION-3 with C2 (MsbA) or C7 (MscS) symmetry imposed, also processed without symmetry

stoichiometry N [1]: 2
Molecule: Rhodobacter sphaeroides dimeric RC–LH1–PufX complex (521 kDa) (from UniProt P0C0Y7 1-260; P13402 1-82)

B1: Escherichia coli mechanosensitive channel MscS, His-tagged (natural protein, UniProt P0C0S1 1-286, looked up)
chain: MEDLNVVDSINGAGSWLVANQALLLSYAVNIVAALAIIIVGLIIARMISNAVNRLMISRKIDATVADFLSALVRYGIIAFTLIAALGRVGVQTASVIAVLGAAGLAVGLALQGSLSNLAAGVLLVMFRPFRAGEYVDLGGVAGTVLSVQIFSTTMRTADGKIIVIPNGKIIAGNIINFSREPVRRNEFIIGVAYDSDIDQVKQILTNIIQSEDRILKDREMTVRLNELGASSINFVVRVWSNSGDLQNVYWDVLERIKREFDAAGISFPYPQMDVNFKRVKEDKAA
notes: full-length E. coli MscS cloned into pET-28b(+); Homo-heptamer; source: E. coli BL21 (DE3), purified (Ni-NTA, SEC)
stoichiometry N [2]: 7

B2: Escherichia coli MsbA (ABC transporter, lipid transporter), His-tagged (natural protein)
chain: MHNDKDLSTWQTFRRLWPTIAPFKAGLIVAGVALILNAASDTFMLSLLKPLLDDGFGKTDRSVLVWMPLVVIGLMILRGITSYVSSYCISWVSGKVVMTMRRRLFGHMMGMPVSFFDKQSTGTLLSRITYDSEQVASSSSGALITVVREGASIIGLFIMMFYYSWQLSIILIVLAPIVSIAIRVVSKRFRNISKNMQNTMGQVTTSAEQMLKGHKEVLIFGGQEVETKRFDKVSNRMRLQGMKMVSASSISDPIIQLIASLALAFVLYAASFPSVMDSLTAGTITVVFSSMIALMRPLKSLTNVNAQFQRGMAACQTLFTILDSEQEKDEGKRVIERATGDVEFRNVTFTYPGRDVPALRNINLKIPAGKTVALVGRSGSGKSTIASLITRFYDIDEGEILMDGHDLREYTLASLRNQVALVSQNVHLFNDTVANNIAYARTEQYSREQIEEAARMAYAMDFINKMDNGLDTVIGENGVLLSGGQRQRIAIARALLRDSPILILDEATSALDTESERAIQAALDELQKNRTSLVIAHRLSTIEKADEIVVVEDGVIVERGTHNDLLEHRGVYAQLHKMQFGQ
notes: MsbA, ABC transporter of Escherichia coli; Nucleotide-free; also called His6-MsbA; source: E. coli C43, purified (DDM, Ni-NTA, SEC)
stoichiometry N [2]: 2
